Drawing on patent publication US20190352356A1, this text covers pEC50 of cAMP production (pEC50 (-log10(EC50))) for four molecules.

Bridges are numbered along the chain shown (N, C = ends). Where no end group is shown, it is not given here.

Test [1] concerns the target human calcitonin receptor (hCT(a)) (human) (UniProt P30988). Put plainly: cell-based or functional assay.
Test [2] concerns the target human amylin receptor (hAMY1(a)) (human) (UniProt P30988). Put plainly: cell-based or functional assay.

Sequence of human amylin receptor (hAMY1(a)) (human) (P30988 25-474, chain 1 of 2): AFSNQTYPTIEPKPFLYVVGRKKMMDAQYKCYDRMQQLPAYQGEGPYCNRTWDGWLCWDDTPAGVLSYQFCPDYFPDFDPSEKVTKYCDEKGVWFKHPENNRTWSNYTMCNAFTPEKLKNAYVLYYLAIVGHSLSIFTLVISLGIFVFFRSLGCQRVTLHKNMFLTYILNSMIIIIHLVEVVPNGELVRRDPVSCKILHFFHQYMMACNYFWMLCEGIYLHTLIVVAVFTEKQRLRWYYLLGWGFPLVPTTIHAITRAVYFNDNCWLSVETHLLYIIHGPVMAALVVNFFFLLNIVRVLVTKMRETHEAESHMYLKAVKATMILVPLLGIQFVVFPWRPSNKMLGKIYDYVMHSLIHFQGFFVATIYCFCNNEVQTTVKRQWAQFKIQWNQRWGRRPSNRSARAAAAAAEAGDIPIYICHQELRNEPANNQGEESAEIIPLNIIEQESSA
Sequence of human amylin receptor (hAMY1(a)) (human) (O60894 27-148, chain 2 of 2, further chain): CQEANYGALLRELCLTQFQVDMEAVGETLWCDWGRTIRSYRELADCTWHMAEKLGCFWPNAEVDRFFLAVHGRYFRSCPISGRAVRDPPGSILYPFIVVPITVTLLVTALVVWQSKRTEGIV
Sequence of human calcitonin receptor (hCT(a)) (human) (P30988 25-474): as the sequence (P30988 25-474, chain 1 of 2) above

B1: exemplary mutant-hIAPP polypeptide mutant analog 1 (N22K, G24P, I26P, N31K) (peptide)
peptide: KCNTATCATQRLANFLVHSSNKFPAPLSSTKVGSNTY
HELM: PEPTIDE1{K.C.N.T.A.T.C.A.T.Q.R.L.A.N.F.L.V.H.S.S.N.K.F.P.A.P.L.S.S.T.K.V.G.S.N.T.Y.[am]}$PEPTIDE1,PEPTIDE1,2:R3-7:R3$$$V2.0; N-terminus assumed
SMILES: CC(C)C[C@H](NC(=O)[C@H](CCCNC(=N)N)NC(=O)[C@H](CCC(N)=O)NC(=O)[C@@H](NC(=O)[C@H](C)NC(=O)[C@@H]1CSSC[C@H](NC(=O)[C@@H](N)CCCCN)C(=O)N[C@@H](CC(N)=O)C(=O)N[C@@H]([C@@H](C)O)C(=O)N[C@@H](C)C(=O)N[C@@H]([C@@H](C)O)C(=O)N1)[C@@H](C)O)C(=O)N[C@@H](C)C(=O)N[C@@H](CC(N)=O)C(=O)N[C@@H](Cc1ccccc1)C(=O)N[C@@H](CC(C)C)C(=O)N[C@H](C(=O)N[C@@H](Cc1c[nH]cn1)C(=O)N[C@@H](CO)C(=O)N[C@@H](CO)C(=O)N[C@@H](CC(N)=O)C(=O)N[C@@H](CCCCN)C(=O)N[C@@H](Cc1ccccc1)C(=O)N1CCC[C@H]1C(=O)N[C@@H](C)C(=O)N1CCC[C@H]1C(=O)N[C@@H](CC(C)C)C(=O)N[C@@H](CO)C(=O)N[C@@H](CO)C(=O)N[C@H](C(=O)N[C@@H](CCCCN)C(=O)N[C@H](C(=O)NCC(=O)N[C@@H](CO)C(=O)N[C@@H](CC(N)=O)C(=O)N[C@H](C(=O)N[C@@H](Cc1ccc(O)cc1)C(N)=O)[C@@H](C)O)C(C)C)[C@@H](C)O)C(C)C
With B1, the pEC50 of cAMP production (pEC50 (-log10(EC50))) in test [1] came out at 8.3; in test [2] it was 8.47.

B2: exemplary mutant-hIAPP polypeptide mutant analog 2 (N21K, G24P, I26P, N35K) (peptide)
peptide: KCNTATCATQRLANFLVHSSKNFPAPLSSTNVGSKTY
HELM: PEPTIDE1{K.C.N.T.A.T.C.A.T.Q.R.L.A.N.F.L.V.H.S.S.K.N.F.P.A.P.L.S.S.T.N.V.G.S.K.T.Y.[am]}$PEPTIDE1,PEPTIDE1,2:R3-7:R3$$$V2.0; N-terminus assumed
SMILES: CC(C)C[C@H](NC(=O)[C@H](CCCNC(=N)N)NC(=O)[C@H](CCC(N)=O)NC(=O)[C@@H](NC(=O)[C@H](C)NC(=O)[C@@H]1CSSC[C@H](NC(=O)[C@@H](N)CCCCN)C(=O)N[C@@H](CC(N)=O)C(=O)N[C@@H]([C@@H](C)O)C(=O)N[C@@H](C)C(=O)N[C@@H]([C@@H](C)O)C(=O)N1)[C@@H](C)O)C(=O)N[C@@H](C)C(=O)N[C@@H](CC(N)=O)C(=O)N[C@@H](Cc1ccccc1)C(=O)N[C@@H](CC(C)C)C(=O)N[C@H](C(=O)N[C@@H](Cc1c[nH]cn1)C(=O)N[C@@H](CO)C(=O)N[C@@H](CO)C(=O)N[C@@H](CCCCN)C(=O)N[C@@H](CC(N)=O)C(=O)N[C@@H](Cc1ccccc1)C(=O)N1CCC[C@H]1C(=O)N[C@@H](C)C(=O)N1CCC[C@H]1C(=O)N[C@@H](CC(C)C)C(=O)N[C@@H](CO)C(=O)N[C@@H](CO)C(=O)N[C@H](C(=O)N[C@@H](CC(N)=O)C(=O)N[C@H](C(=O)NCC(=O)N[C@@H](CO)C(=O)N[C@@H](CCCCN)C(=O)N[C@H](C(=O)N[C@@H](Cc1ccc(O)cc1)C(N)=O)[C@@H](C)O)C(C)C)[C@@H](C)O)C(C)C
As to B2, the results for the pEC50 of cAMP production (pEC50 (-log10(EC50))) in test [1] and in test [2] were 7.97 and 8.75, respectively.

B3: exemplary mutant-hIAPP polypeptide mutant analog 4 (N22K, S28P, N31K as SEQ ID NO: 22 is printed) (peptide)
peptide: KCNTATCATQRLANFLVHSSNKFGAILPSTKVGSNTY-NH2
modifications: disulfide 2-7; not fully specified; printed as KCNTATCATQRLANFLVHSSNKFGAILPSTKVGSNTY-NH2
For the molecule B3, the figures for the pEC50 of cAMP production (pEC50 (-log10(EC50))) in test [1] and in test [2] were 8.55 and 9.43, respectively.

B4: exemplary mutant-hIAPP polypeptide mutant analog 3 (N21K, N35K) (peptide)
peptide: KCNTATCATQRLANFLVHSSKNFGAILSSTNVGSKTY
HELM: PEPTIDE1{K.C.N.T.A.T.C.A.T.Q.R.L.A.N.F.L.V.H.S.S.K.N.F.G.A.I.L.S.S.T.N.V.G.S.K.T.Y.[am]}$PEPTIDE1,PEPTIDE1,2:R3-7:R3$$$V2.0; N-terminus assumed
SMILES: CC[C@H](C)[C@H](NC(=O)[C@H](C)NC(=O)CNC(=O)[C@H](Cc1ccccc1)NC(=O)[C@H](CC(N)=O)NC(=O)[C@H](CCCCN)NC(=O)[C@H](CO)NC(=O)[C@H](CO)NC(=O)[C@H](Cc1c[nH]cn1)NC(=O)[C@@H](NC(=O)[C@H](CC(C)C)NC(=O)[C@H](Cc1ccccc1)NC(=O)[C@H](CC(N)=O)NC(=O)[C@H](C)NC(=O)[C@H](CC(C)C)NC(=O)[C@H](CCCNC(=N)N)NC(=O)[C@H](CCC(N)=O)NC(=O)[C@@H](NC(=O)[C@H](C)NC(=O)[C@@H]1CSSC[C@H](NC(=O)[C@@H](N)CCCCN)C(=O)N[C@@H](CC(N)=O)C(=O)N[C@@H]([C@@H](C)O)C(=O)N[C@@H](C)C(=O)N[C@@H]([C@@H](C)O)C(=O)N1)[C@@H](C)O)C(C)C)C(=O)N[C@@H](CC(C)C)C(=O)N[C@@H](CO)C(=O)N[C@@H](CO)C(=O)N[C@H](C(=O)N[C@@H](CC(N)=O)C(=O)N[C@H](C(=O)NCC(=O)N[C@@H](CO)C(=O)N[C@@H](CCCCN)C(=O)N[C@H](C(=O)N[C@@H](Cc1ccc(O)cc1)C(N)=O)[C@@H](C)O)C(C)C)[C@@H](C)O
As for B4, the values for the pEC50 of cAMP production (pEC50 (-log10(EC50))) in test [1] and in test [2] were 8.62 and 9.13, respectively.
